± gives the standard deviation of the averaged measurements.
System: ATP
Assay: switch fluorescence ratio, 500 uM ATP over buffer (Cy3 cluster intensity, sum of 5 cycles each) (fold (ratio)); higher = stronger signal-on switching upon ATP binding; sequences stand for … in TCGTCGGCAGCGTCAGATGTGTATAAGAGACAGTTTTTTTTTTTTTTTTTTTTTTTTT…TC
Details: aptamer strand: ATP DNA aptamer (quencher-CACCTGGGGGAGTATTGCGGAGGAAGG + anchor), 100 nM annealed; ATP concentration: 500 uM
In short: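 Exposure to 500 uM ATP lasted 15 min at 22 °C before imaging, and a selection-buffer image was taken beforehand, for Cy3-labelled switching-strand clusters on a modified Illumina MiSeq flow-cell annealed to 100 nM quencher-labelled ATP aptamer. Five buffer/ATP cycles were run with NaOH stripping and re-annealing between them. The fluorescence ratio per cluster is summed target-cycle over summed buffer-cycle Cy3 intensity, averaged per switch-domain sequence. Clusters outside 100-1000 RFU were excluded.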

Sequence	switch fluorescence ratio
CGGTGAGTGG	1.01 ± 0.02
GCATGATAAC	1.04 ± 0.02
CACATTGACC	1.1119 ± 7.1e-05
CGTCTTTTAT	0.9935 ± 0.0043
TAAATTAGGA	0.988 ± 0.074
GGGGTGGGAC	1.044 ± 0.006
TAAAAATGCG	0.951 ± 0.065
GGTTATTCGG	0.993 ± 0.053
ACACAGTACT	1.37 ± 0.09
GGCCTCCTGT	1.02 ± 0.033
TTCCTAGGGA	0.994 ± 0.046
TGAATGGGCA	0.973 ± 0.024
GATGCTGGGT	1.01 ± 0.014
GCTCAAGCTA	1.15 ± 0.021
ATCGTTGTAC	1.18 ± 0.048
CACCAGGAAT	1.08 ± 0.021
TTGCCGGGGG	1.24 ± 0.38
ATCCGAGTCA	1.07 ± 0.014
GCATCGCCAT	1.02 ± 0.029
TATGTTGGAT	0.988 ± 0.012
GGGATCATGT	0.98 ± 0.014
AGGGTAAGTC	0.972 ± 0.043
TAATATTTTA	0.987 ± 0.014

Sequence	switch fluorescence ratio
TGGGGCCGTG	1.04 ± 0.04
ATAAAAGGTG	1.1 ± 0.074
ACCAATATAT	0.996 ± 0.033
TGGGTATTGG	1 ± 0.03
AGAGTGGGTG	0.978 ± 0.013
TAGTGGCAGC	0.9797 ± 0.0053
AGAGACTGAG	1.045 ± 0.0026
CAGGGGTTTT	1.32 ± 0.54
AGCGGATGTG	0.978 ± 0.027
TTTAGAAATA	1.05 ± 0.022
AACGACTTGT	1.01 ± 0.037
GAGAGCGAGT	1.03 ± 0.036
TGCAAGAAGG	0.9832 ± 0.0053
ACCGGTTTTC	0.984 ± 0.023
ATTGGGGTTC	1.01 ± 0.067
GGGTAGGCAG	1.18 ± 0.25
TTGGGTTTGT	0.997 ± 0.017
AATGGAGGGT	1.03 ± 0.055
GGCGGTGTGG	0.981 ± 0.023
GGGGGGTGTG	0.986 ± 0.025
ATAGTAAGCC	1.04 ± 0.031
AGGATTCGGG	1.01 ± 0.021
AACAGGGGAG	1.03 ± 0.03

Sequence	switch fluorescence ratio
AGGGGGCCCG	1.009 ± 0.005
ACTTTGTCTG	0.991 ± 0.041
TCGGAGGGGA	1 ± 0.02
CGAATGTGGG	1.0147 ± 0.00075
TCCCGTTATT	1.01 ± 0.025
TAACCGATAT	0.99434 ± 0.00034
TTGATCGGGG	1.01 ± 0.028
AGAAGGTTTG	0.963 ± 0.01
CGCATAGGGT	1.13 ± 0.012
ATTCATGTTG	0.996 ± 0.014
TGCAATGTAG	1.082 ± 0.0029
AAAAATTCTG	1.02 ± 0.014
TTGACCAAAA	1.03 ± 0.055
AATGACGTGT	1 ± 0.052
AGGGGTAATA	0.9817 ± 0.006
GCAATTTTTG	1.002 ± 0.0066
AACATTATTT	1.022 ± 0.0014
TGTGGGGCCA	0.96 ± 0.038
TGGAGGGTTG	1 ± 0.026
TACCCATTAC	1.72 ± 0.041
TGGGGTAGCA	1.01 ± 0.029
TTTTGACGTG	0.991 ± 0.013
GTATGTAGGG	0.995 ± 0.015

Sequence	switch fluorescence ratio
GGGTTCGACA	0.998 ± 0.019
GTATAAGTTT	0.998 ± 0.017
GGTGTTTGTT	0.956 ± 0.065
AATAGAGGGG	0.9926 ± 0.0071
TGTTTGTTGT	1.03 ± 0.063
GCGTTGATGA	1.01 ± 0.019
TAAAGCATTA	1.04 ± 0.025
TTATAGTTTC	1.03 ± 0.057
CGGGAGAGGA	0.988 ± 0.033
TACGGGATGG	0.989 ± 0.029
CGGGTGGTTC	0.994 ± 0.012
CGATGGCTGG	0.976 ± 0.027
ATTTAGGCTG	1.062 ± 0.0089
CTATGGGGGG	0.993 ± 0.035
TTGGCGTTTT	1.04 ± 0.026
GCATTAATGG	1.04 ± 0.051
GCTATTTAGT	1.0108 ± 0.00043
AATATTTTTC	1.01 ± 0.015
TTTAGGTAGT	0.975 ± 0.021
CAACGTGTGG	1.04 ± 0.072
GTAAAAGCTC	1.02 ± 0.018
TCCGGTCAGC	1.13 ± 0.15
GATCGACTTT	0.958 ± 0.012

Sequence	switch fluorescence ratio
GCTTTCCTTA	0.991 ± 0.04
CGTTTTCCGA	1.01 ± 0.032
CGGGGGGAGA	1.03 ± 0.061
GGTTTAGCTG	0.984 ± 0.041
ATAGGAGTGG	0.964 ± 0.053
TTTCAGAAAT	1.91 ± 1.6
CAATAAAGGT	1.08 ± 0.18
TAGGAGTGAA	0.9792 ± 0.0021
TCGTAGGGGT	0.995 ± 0.018
GACGAATCCA	1.03 ± 0.046
GGTCCGTAGG	1.01 ± 0.033
ACTGGGCCTT	1.031 ± 0.0083
AATGAAAGAT	0.998 ± 0.039
AGGTCTATGC	0.975 ± 0.016
TCTTGTACGT	1.01 ± 0.03
GGGTAGGGGT	1.02 ± 0.074
TTAATTTATG	0.976 ± 0.035
CAAGGACTGT	1.05 ± 0.016
AAGAGGTGGA	1.028 ± 0.0098
GATTTTAGTT	0.9848 ± 0.0086
ATTCTGAGGC	1.03 ± 0.045
GCGGGGGATC	1 ± 0.03
AGGGGAAGCC	1.02 ± 0.066

Sequence	switch fluorescence ratio
TTTATATAAT	0.984 ± 0.038
GTGGGGCGCA	1.01 ± 0.026
TTACTCGGGC	0.999 ± 0.019
GGTTCTGGGC	0.9601 ± 0.0026
CTTTGGCAGC	1.06 ± 0.017
AAGGGTCTGG	0.986 ± 0.024
TGCGGGCCAT	1.027 ± 0.0067
TACGATGAGT	0.996 ± 0.02
GAGCTAAGTT	0.992 ± 0.012
ACCGTATGAC	1.05 ± 0.068
TAACTTCGTG	1.01 ± 0.031
CCCGGGATAT	1.06 ± 0.056
TCTTACAATC	1.1 ± 0.095
GAAAATGTTG	0.991 ± 0.033
CCTTTGCCGC	1.58 ± 0.54
TTTGCAGAAT	1.006 ± 0.0094
ACAGTCATGG	1.021 ± 0.0092
GGGCGGGGTG	1.03 ± 0.025
CTAGAAAGC	1.02 ± 0.02
TGTTAATCTG	0.994 ± 0.021
TTTTTATCTT	1.03 ± 0.046
GAACGAACGG	1.08 ± 0.06
TAAATCTCTG	1.004 ± 0.0055

Sequence	switch fluorescence ratio
GAAAAAGGAA	1.024 ± 0.0041
ATTATAAGGG	1.02 ± 0.056
GGCAGGAGGG	1.11 ± 0.22
GGCGCTAGCG	0.993 ± 0.068
TATCAGTGAT	1.02 ± 0.071
GAGGCATTGT	1.05 ± 0.017
GACGTGTAGT	1.02 ± 0.025
TTTAAAAATT	0.987 ± 0.026
ATGGATGACA	0.951 ± 0.052
GCGACTAGGT	1.03 ± 0.028
ATATGTGTGT	0.995 ± 0.018
AATATCTCAC	1.022 ± 0.0087
AAAACCGAAA	1.11 ± 0.1
TTGGGGACAT	0.98 ± 0.043
GAGTGCTAAA	1.01 ± 0.0053
TAAGAACATT	1.03 ± 0.1
GAGCGGGGGG	0.969 ± 0.022
ATTCTCAGTG	1.01 ± 0.038
GTTTTCGCCG	1.03 ± 0.11

Reference: the supplement of paper PMC10126150
